Experimental data: the RNAGym collection of RNA variant scans (doi:10.7554/elife.80360)

B1: CPEB3 Ribozyme (parent)
chain: GGGGGCCACAGCAGAAGCGUUCACGUCGCGGCCCCUGUCAGAUUCUGGUGAAUCUGCGAAUUCUGCUGU

Variants of: B1
Assay: self-cleavage, relative activity (ratio to wild type); higher = more cleavage; co-transcriptional

| Variant | self-cleavage |
| --- | --- |
| C35A A59G | 0.34 |
| C35A A59U | 0.227 |
| C35A A60C | 0.193 |
| C35A A60G | 0.24 |
| C35A C39G | 0.3 |
| C35A C39U | 0.183 |
| C35A C54A | 0.315 |
| C35A C54U | 0.252 |
| C35A C57U | 0.191 |
| C35A C63A | 0.276 |
| C35A C66A | 0.22 |
| C35A C66G | 0.294 |
| C35A C66U | 0.259 |
| C35A G37A | 0.221 |
| C35A G37C | 0.254 |
| C35A G37U | 0.237 |
| C35A G41A | 0.264 |
| C35A G41U | 0.277 |
| C35A G47A | 0.292 |
| C35A G47C | 0.189 |
| C35A G47U | 0.259 |
| C35A G48U | 0.249 |
| C35A G50U | 0.287 |
| C35A G56A | 0.218 |

| Variant | self-cleavage |
| --- | --- |
| C35A G56C | 0.253 |
| C35A G56U | 0.223 |
| C35A G58U | 0.286 |
| C35A G65A | 0.299 |
| C35A G65U | 0.184 |
| C35A G68C | 0.345 |
| C35A G68U | 0.394 |
| C35A U36C | 0.245 |
| C35A U36G | 0.232 |
| C35A U38A | 0.279 |
| C35A U38C | 0.256 |
| C35A U43A | 0.185 |
| C35A U43C | 0.264 |
| C35A U43G | 0.227 |
| C35A U44C | 0.277 |
| C35A U46A | 0.268 |
| C35A U46G | 0.356 |
| C35A U49A | 0.303 |
| C35A U49C | 0.342 |
| C35A U49G | 0.26 |
| C35A U53A | 0.266 |
| C35A U53C | 0.225 |
| C35A U53G | 0.24 |
| C35A U55A | 0.244 |

| Variant | self-cleavage |
| --- | --- |
| C35A U55C | 0.357 |
| C35A U55G | 0.196 |
| C35A U61A | 0.231 |
| C35A U61G | 0.288 |
| C35A U62A | 0.306 |
| C35A U62C | 0.242 |
| C35A U62G | 0.21 |
| C35A U64A | 0.205 |
| C35A U64C | 0.276 |
| C35A U64G | 0.318 |
| C35A U67C | 0.324 |
| C35A U69A | 0.358 |
| C35A U69C | 0.417 |
| C35G A40C | 0.225 |
| C35G A40G | 0.394 |
| C35G A40U | 0.261 |
| C35G A42G | 0.503 |
| C35G A42U | 0.308 |
| C35G A51C | 0.426 |
| C35G A51G | 0.461 |
| C35G A51U | 0.445 |
| C35G A52C | 0.433 |
| C35G A52U | 0.474 |
| C35G A59U | 0.254 |

| Variant | self-cleavage |
| --- | --- |
| C35G A60C | 0.348 |
| C35G A60G | 0.239 |
| C35G A60U | 0.217 |
| C35G C39A | 0.362 |
| C35G C45A | 0.475 |
| C35G C45G | 0.452 |
| C35G C45U | 0.483 |
| C35G C54G | 0.348 |
| C35G C57A | 0.243 |
| C35G C57G | 0.212 |
| C35G C63A | 0.341 |
| C35G C66A | 0.308 |
| C35G C66U | 0.474 |
| C35G G37A | 0.219 |
| C35G G37C | 0.206 |
| C35G G37U | 0.257 |
| C35G G41U | 0.341 |
| C35G G47C | 0.634 |
| C35G G47U | 0.553 |
| C35G G48A | 0.452 |
| C35G G48U | 0.491 |
| C35G G50A | 0.36 |
| C35G G50U | 0.443 |
| C35G G56A | 0.297 |

| Variant | self-cleavage |
| --- | --- |
| C35G G56C | 0.331 |
| C35G G56U | 0.307 |
| C35G G58C | 0.295 |
| C35G G58U | 0.375 |
| C35G G65U | 0.223 |
| C35G G68A | 0.741 |
| C35G G68C | 0.77 |
| C35G U38A | 0.417 |
| C35G U38G | 0.178 |
| C35G U43A | 0.335 |
| C35G U43C | 0.372 |
| C35G U43G | 0.31 |
| C35G U44A | 0.346 |
| C35G U44C | 0.357 |
| C35G U46C | 0.378 |
| C35G U49C | 0.513 |
| C35G U53C | 0.342 |
| C35G U53G | 0.214 |
| C35G U61A | 0.33 |
| C35G U62A | 0.313 |
| C35G U62G | 0.308 |
| C35G U64C | 0.274 |
| C35G U64G | 0.304 |
| C35G U67A | 0.638 |

| Variant | self-cleavage |
| --- | --- |
| C35G U67G | 0.574 |
| C35G U69A | 0.543 |
| C35G U69C | 0.77 |
| C35G U69G | 0.545 |
| C35U A40G | 0.914 |
| C35U A42C | 0.81 |
| C35U A42G | 0.943 |
| C35U A42U | 0.907 |
| C35U A51C | 0.958 |
| C35U A51G | 0.904 |
| C35U A51U | 0.904 |
| C35U A52G | 0.974 |
| C35U A52U | 0.973 |
| C35U A59C | 0.41 |
| C35U A59G | 0.999 |
| C35U A59U | 0.564 |
| C35U C39A | 0.782 |
| C35U C39G | 0.878 |
| C35U C45G | 0.956 |
| C35U C54A | 0.744 |
| C35U C57A | 0.323 |
| C35U C63A | 0.77 |
| C35U C63G | 0.588 |
| C35U C63U | 0.954 |

| Variant | self-cleavage |
| --- | --- |
| C35U C66A | 0.828 |
| C35U G37A | 0.253 |
| C35U G41C | 0.632 |
| C35U G41U | 0.745 |
| C35U G47A | 0.918 |
| C35U G47C | 0.967 |
| C35U G47U | 1.01 |
| C35U G48A | 1.01 |
| C35U G48C | 0.964 |
| C35U G48U | 0.987 |
| C35U G50A | 0.974 |
| C35U G50C | 0.979 |
| C35U G56A | 0.819 |
| C35U G56C | 0.651 |
| C35U G56U | 0.859 |
| C35U G58A | 0.878 |
| C35U G58C | 0.878 |
| C35U G58U | 0.984 |
| C35U G65A | 0.847 |
| C35U G65U | 0.632 |
| C35U G68C | 0.963 |
| C35U G68U | 1.01 |
| C35U U36A | 0.212 |
